Results from patent US20070270486.

Target: T1, Myocilin tagged at its C-terminus with S-peptide, Q99972
T1 chain: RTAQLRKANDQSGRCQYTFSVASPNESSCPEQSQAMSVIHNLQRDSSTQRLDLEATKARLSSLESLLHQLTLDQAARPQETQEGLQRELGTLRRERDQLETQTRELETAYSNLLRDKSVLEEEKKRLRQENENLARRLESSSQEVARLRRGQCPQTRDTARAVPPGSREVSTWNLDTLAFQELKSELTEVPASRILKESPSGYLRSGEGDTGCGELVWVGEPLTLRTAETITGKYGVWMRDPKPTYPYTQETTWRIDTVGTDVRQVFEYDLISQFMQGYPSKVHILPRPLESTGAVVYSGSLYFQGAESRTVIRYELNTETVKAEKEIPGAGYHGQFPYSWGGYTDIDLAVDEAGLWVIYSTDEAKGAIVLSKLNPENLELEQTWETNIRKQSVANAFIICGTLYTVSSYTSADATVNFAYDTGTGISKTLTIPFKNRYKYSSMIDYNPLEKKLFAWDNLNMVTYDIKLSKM

B1: S-protein (protein)
chain: SSSNYCNQMMKSRNLTKDRCKPVNTFVHESLADVQAVCSQKNVACKNGQTNCYQSYSTMSITDCRETGSSKYPNCAYKTTQANKHIIVACEGNPYVPVHFDASV
  RNAase analysis of culture medium (enzymatic recombination assay): the assay can detect secreted myocilin in less than 1 µl of media
